Conditions: gadolinium complex

**Q.** Which relaxivity does the source give for “gadolinium complex of (DTPAGLU)4(Lys)2Lys-Gly-Vapreotide [Example 3]” here?
**A.** The relaxivity was 15 mM⁻¹ s⁻¹.

Source: patent US20050008573A1, “Peptides conjugates, their derivatives with metal complexes and use thereof for magnetic resonance imaging (mri)” (priority 2001, published 2005)
